We go through two molecules from patent US20240124586A1 (WUXI BIOLOGICS IRELAND, published 2024).

For assay [1], the target named is T1, human CTLA-4 on engineered 293F cells (W316-293F.hPro1.FL) (human, UniProt P16410 36-223).
T1 construct: whole, on cells; also called human CTLA-4 engineered cells; CTLA-4+ cells
The assay is described as follows: FACS binding to human CTLA-4 engineered cells. The protocol: 3.16-fold titrated Abs with 1% BSA DPBS from 200 nM to 0.002 nM were added to the cells. Plates were incubated at 4° C. for 1 hour. After wash, […] 1:150 diluted PE-labeled goat anti-human antibody (Jackson 109-115-098) was added to each well and the plates were incubated at 4° C. for 1 hour. The binding of the antibodies onto the cells was tested by flow cytometry and the mean fluorescence intensity (MFI) was analyzed by FlowJo.

Assay [2] deals with T2, biotinylated human CTLA-4.ECD.hFc (W316-hPro1.ECD.hFc.Biotin) (human, UniProt P16410 36-161, biotin-labelled (site not stated)).
T2 construct: extracellular domain; In-house protein; also called hCTLA-4.ECD.hFc-Biotin; human CTLA-4 protein
In words: competitive FACS, biotinylated CTLA-4.ECD.hFc on human CD80 CHO-K1 cells (competitor: CD80). The protocol: (§1) Competitive FACS was used to test whether the antibodies could block human or cynomolgus CTLA-4 binding to hCD80 on cell surface. […] Then the mixtures of antibody and CTLA-4 were added to the cells and incubated for 1 hour at 4° C. The cells were washed two times with 200 μl FACS washing buffer (DPBS containing 1% BSA). Streptavidin PE (BD Pharmingen-554061) 1 to 600 diluted in FACS buffer was added to the cells and incubated at 4° C. for 1 hour. Additional washing steps were performed two times with 200 μL FACS washing buffer followed by centrifugation at 1500 rpm for 4 minutes at 4° C. Finally, the cells were resuspended in 100 μL FACS washing buffer and fluorescence values were measured by flow cytometry and analyzed by FlowJo.

Assay [3] has as its target cynomolgus CTLA-4 protein (cynomolgus, UniProt G7PL88 36-161, Probably biotinylated for streptavidin-PE detection, as described for the human CTLA-4 reagent in paragraph 775; the letters cannot carry this.). The assay is described as follows: FACS competition: blocks cynomolgus CTLA-4 protein binding to human CD80 engineered cells. The protocol:
as §1

Assay [4] has as its target T3, human CD19 on CD19+ B cell lines (Ramos, Raji) (human, UniProt P15391 20-556).
T3 construct: whole, on cells; also called CD19+ Ramos cells; CD19+ Raji cells
T3 sequence (looked up): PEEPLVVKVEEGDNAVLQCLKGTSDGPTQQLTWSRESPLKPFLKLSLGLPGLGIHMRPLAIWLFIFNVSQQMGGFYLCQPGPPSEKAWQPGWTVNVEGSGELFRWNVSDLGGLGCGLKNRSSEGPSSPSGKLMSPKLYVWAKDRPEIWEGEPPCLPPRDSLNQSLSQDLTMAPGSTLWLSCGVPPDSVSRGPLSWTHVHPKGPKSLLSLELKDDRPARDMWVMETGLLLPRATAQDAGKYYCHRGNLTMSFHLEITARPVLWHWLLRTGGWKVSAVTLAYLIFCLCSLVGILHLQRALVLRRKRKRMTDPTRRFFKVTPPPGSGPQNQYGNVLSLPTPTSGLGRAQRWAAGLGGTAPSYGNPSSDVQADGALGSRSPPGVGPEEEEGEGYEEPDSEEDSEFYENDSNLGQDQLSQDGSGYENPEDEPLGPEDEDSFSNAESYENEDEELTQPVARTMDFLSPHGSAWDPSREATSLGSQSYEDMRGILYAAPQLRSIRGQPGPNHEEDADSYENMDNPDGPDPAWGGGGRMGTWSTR
In words: affinity by flow cytometry on Ramos cells (bound/free versus bound). The protocol: Binding affinity to CD3 and CD19 was determined by flow cytometry using Jurkat and Ramos cells, respectively. The cells were transferred in to 96-well U-bottom plates (BD) at a density of 5×10⁴ cells/well. Antibodies to be tested were 1:2-fold serially diluted in 1% 1×PBS/1% BSA and incubated with cells at 4° C. for 1 hr. Then, the plates were centrifuged at 1500 rpm for 4 mins and the supernatant discarded. […] The cells were washed once and re-suspended in 100 μL 1×PBS/1% BSA. Fluorescence intensity was measured by flow cytometry (BD Canto II) and analyzed by FlowJo. Fluorescence intensity was converted to bound molecules/cell based on the quantitative beads (Quantum™ MESF Kits, Bangs Laboratories). KD was calculated by Graphpad Prism5.
The bound IgG/free IgG versus bound IgG was plotted in FIGS. 46A and 46B.
In general terms: Flow cytometry measures light scatter and fluorescence of single cells or particles in a stream.

In assay [5] the target is T3, human CD19 on CD19+ B cell lines …. In words: flow cytometry on Ramos cells.
Assay [6] concerns the target human C1Q (human, UniProt P02745 23-245; P02746 28-253; P02747 29-245). In words: ELISA, antibody coated on the plate, C1q titrated. The protocol:
ELISA Plates (Nunc) were coated with antibody samples at 3 μg/mL overnight at 4° C. After blocking and washing, C1q was gradient diluted starting from 600 μg/mL and incubated at room temperature for 2 hr. The plates were then washed and subsequently incubated with sheep anti-human C1q Ab-HRP for 1 hr. After washing, TMB substrate was added and the interaction was stopped by 2 M HCl. The absorbance at 450 nm was read using a microplate reader (Molecular Device).
The binding activity of antibodies to C1Q was tested by ELISA.

The target in assay [7] is T4, Cynomolgus CD3 epsilon protein (W331-cynoPro1.ECD.His) (cynomolgus, UniProt Q95LI5 22-117).
T4 construct: extracellular domain; Bought protein; also called Acro #CDE-C5226
T4 sequence (looked up): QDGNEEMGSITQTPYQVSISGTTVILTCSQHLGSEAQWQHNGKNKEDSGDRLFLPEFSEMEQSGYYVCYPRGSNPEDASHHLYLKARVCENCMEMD
In words: ELISA, cynomolgus CD3 epsilon protein coated. Background: An ELISA detects its analyte on a solid surface through an enzyme-linked reagent.
Experimental: The binding of the CD3×CD19 bispecific antibody to Cynomolgus CD3 were tested by protein binding ELISA. […] All wells were washed one time with 300 μL per well of PBS/0.5‰ Tween-20 (v/v). The wells were then blocked for one hour at room temperature with 200 μL per well of PBS/2% BSA (BOVOGEN, #BSAS) and washed three times with 300 μL per well of PBS/0.5‰ Tween-20 (v/v). For the primary antibody binding, CD3×CD19 bispecific antibody serially diluted in PBS/2% BSA were added to the relevant wells and incubated at room temperature for two hours. […] Plates were incubated at room temperature for one hour, followed by six washes as described above. […] The extent of bispecific antibody binding to Cynomolgus CD3 was determined by measuring the OD450 absorbance using the SpectraMax® M5e microplate reader. Wherever appropriate, binding EC50 values were obtained by the four-parameter non-linear regression analysis using GraphPad Prism5 software.

Assay [8] concerns the target T5, FcγRI (UniProt P12314 16-288, limits assumed).
T5 construct: His-tagged by the capture method
The assay is described as follows: SPR (Biacore), receptor captured on anti-his chip, 1:1 model. The protocol: Antibody binding affinity to FcγRs was detected using Biacore T200 (or Biacore 8K). Each receptor was captured on an anti-his antibody immobilized CM5 sensor chip (GE). Antibodies at different concentrations were injected over the sensor chip at a flow rate of 30 uL/min for an association phase of 60 s, followed by 60 s dissociation. The chip was then regenerated by 10 mM glycine (pH 1.5) after each binding cycle.
The sensorgrams of blank surface and buffer channel were subtracted from the test sensorgrams. The experimental data was fitted by 1:1 model using Langmiur analysis (for FcγRI) or steady state model (for other receptors). A molecular weight of 150 KDa was used to calculate the molar concentration of antibodies.

As a reminder, the EC50 is the concentration at which the effect is half-maximal. Lower therefore signals greater potency. Usually IC50 stands for the concentration that gives 50% inhibition. A lower IC50 goes with inhibition by little substance. As a reminder, the Kd is the free concentration of one partner at which half of the binding sites on the other are occupied at equilibrium, for simple one-to-one binding. Higher therefore signals lower affinity.

human C1Q, sequence (P02745 23-245 limits assumed, chain 1 of 3): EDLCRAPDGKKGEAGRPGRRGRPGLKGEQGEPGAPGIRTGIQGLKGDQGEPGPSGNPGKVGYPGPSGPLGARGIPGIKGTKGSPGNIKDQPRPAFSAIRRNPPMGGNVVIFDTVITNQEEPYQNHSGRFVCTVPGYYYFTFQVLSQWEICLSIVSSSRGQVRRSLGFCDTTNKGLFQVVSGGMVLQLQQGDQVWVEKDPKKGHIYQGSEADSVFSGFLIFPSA
human C1Q, sequence (P02746 28-253 limits assumed, chain 2 of 3): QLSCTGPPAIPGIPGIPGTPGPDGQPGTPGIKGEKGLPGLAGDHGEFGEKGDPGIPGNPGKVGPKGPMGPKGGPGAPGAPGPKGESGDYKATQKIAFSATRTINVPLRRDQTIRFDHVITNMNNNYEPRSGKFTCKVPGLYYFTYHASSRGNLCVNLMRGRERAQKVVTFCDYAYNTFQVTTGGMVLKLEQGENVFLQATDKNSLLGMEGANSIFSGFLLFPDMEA
human C1Q, sequence (P02747 29-245 limits assumed, chain 3 of 3): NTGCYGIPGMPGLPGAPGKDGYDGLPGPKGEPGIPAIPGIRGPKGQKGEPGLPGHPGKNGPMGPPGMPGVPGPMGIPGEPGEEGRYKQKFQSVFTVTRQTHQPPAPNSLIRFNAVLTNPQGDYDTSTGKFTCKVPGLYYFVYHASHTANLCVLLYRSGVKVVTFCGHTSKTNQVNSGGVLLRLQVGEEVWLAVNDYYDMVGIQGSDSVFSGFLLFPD
T2 sequence (P16410 36-161): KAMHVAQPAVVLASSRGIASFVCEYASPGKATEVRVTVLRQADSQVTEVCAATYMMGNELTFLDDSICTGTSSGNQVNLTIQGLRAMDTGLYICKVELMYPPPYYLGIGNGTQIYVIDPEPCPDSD
cynomolgus CTLA-4 protein, sequence (G7PL88 entry or part of it limits assumed): as the sequence (P16410 36-161) above, with S14N, I18T, L106M counted along it
T5 sequence (P12314 16-288 limits assumed): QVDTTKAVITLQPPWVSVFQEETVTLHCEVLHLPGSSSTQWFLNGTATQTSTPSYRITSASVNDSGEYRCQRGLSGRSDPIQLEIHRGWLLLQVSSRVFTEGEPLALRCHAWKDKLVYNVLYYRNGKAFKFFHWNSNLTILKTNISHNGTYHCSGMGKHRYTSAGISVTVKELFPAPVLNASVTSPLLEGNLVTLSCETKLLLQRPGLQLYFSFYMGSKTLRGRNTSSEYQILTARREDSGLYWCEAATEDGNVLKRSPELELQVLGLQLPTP
T1 sequence (P16410 36-223, change not shown): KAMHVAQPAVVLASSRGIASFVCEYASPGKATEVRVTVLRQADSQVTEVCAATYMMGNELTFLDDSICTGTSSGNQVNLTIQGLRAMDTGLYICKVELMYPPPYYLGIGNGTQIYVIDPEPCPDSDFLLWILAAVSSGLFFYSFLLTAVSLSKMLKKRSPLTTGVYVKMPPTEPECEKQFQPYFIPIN

B1: W3248-U6T5.G25-1.uIgG4.SP, bispecific anti-PD-1 x CTLA-4 (bispecific antibody)
heavy: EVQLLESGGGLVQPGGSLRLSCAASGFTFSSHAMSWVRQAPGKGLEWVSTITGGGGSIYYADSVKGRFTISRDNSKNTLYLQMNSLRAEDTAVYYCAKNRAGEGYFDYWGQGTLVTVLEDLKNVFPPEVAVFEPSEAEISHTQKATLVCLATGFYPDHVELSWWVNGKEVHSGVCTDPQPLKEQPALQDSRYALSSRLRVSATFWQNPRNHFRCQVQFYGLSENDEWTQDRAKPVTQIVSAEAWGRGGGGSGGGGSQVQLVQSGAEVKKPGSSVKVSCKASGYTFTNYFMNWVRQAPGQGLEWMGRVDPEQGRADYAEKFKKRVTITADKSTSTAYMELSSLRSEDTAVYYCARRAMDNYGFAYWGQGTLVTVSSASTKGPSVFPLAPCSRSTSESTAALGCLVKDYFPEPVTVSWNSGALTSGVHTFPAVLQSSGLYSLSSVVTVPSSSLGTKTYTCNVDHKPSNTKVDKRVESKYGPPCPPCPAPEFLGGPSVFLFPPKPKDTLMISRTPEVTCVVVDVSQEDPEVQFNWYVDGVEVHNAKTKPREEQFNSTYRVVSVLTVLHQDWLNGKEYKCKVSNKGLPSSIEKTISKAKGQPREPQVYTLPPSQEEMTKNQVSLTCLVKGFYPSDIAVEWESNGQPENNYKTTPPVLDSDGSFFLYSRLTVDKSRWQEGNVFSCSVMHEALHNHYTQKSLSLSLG
light 1: SYELTQPLSVSVALGQTARITCGGDNIGNKDVHWYQQKPGQAPVLVIYRDSNRPSGIPEGFSGSNSGNTATLTISRAQAGDEADYYCQVWDSIWVFGGGTKLTVLPDIQNPDPAVYQLRDSKSSDKSVCLFTDFDSQTQVSQSKDSDVYITDKCVLDMRSMDFKSNSAVAWSQKSDFACANAFQNSIIPEDTFFPSPESS
light 2: EIVLTQSPDFQSVTPKEKVTITCSANSALSYMYWYQQKPDQSPKLWVHGTSNLASGVPSRFSGSGSGTDFTLTINSLEAEDAATYYCHHWSNTQWTFGGGTKVEIKRTVAAPSVFIFPPSDEQLKSGTASVVCLLNNFYPREAKVQWKVDNALQSGNSQESVTEQDSKDSTYSLSSTLTLSKADYEKHKVYACEVTHQGLSSPVTKSFNRGEC
notes: IgG4 (S228P); also called WBP3248-U6T5.G25-1-uIgG4.SP; U6T5.G25.IgG4
B1 gave an EC50 in assay [1] of 3.17 nM. Also, the half-inhibitory concentration (IC50) in assay [2] was 0.758 nM; in assay [3] it was 2.14 nM.

B2: W3438-T3U4.E17-1.uIgG4.SP, bispecific anti-CD3 x CD19 (bispecific antibody)
heavy 1: QVQLVQSGAEVKKPGSSVKVSCKASGFAFTDYYIHWVRQAPGQGLEWMGWISPGNVNTKYNENFKGRVTITADKSTSTAYMELSSLRSEDTAVYYCARDGYSLYYFDYWGQGTLVTVLEDLKNVFPPEVAVFEPSEAEISHTQKATLVCLATGFYPDHVELSWWVNGKEVHSGVCTDPQPLKEQPALQDSRYALSSRLRVSATFWQNPRNHFRCQVQFYGLSENDEWTQDRAKPVTQIVSAEAWGRYGPPCPPCPAPEFLGGPSVFLFPPKPKDTLMISRTPEVTCVVVDVSQEDPEVQFNWYVDGVEVHNAKTKPREEQFNSTYRVVSVLTVLHQDWLNGKEYKCKVSNKGLPSSIEKTISKAKGQPREPQVYTLPPCQEEMTKNQVSLWCLVKGFYPSDIAVEWESNGQPENNYKTTPPVLDSDGSFFLYSRLTVDKSRWQEGNVFSCSVMHEALHNHYTQKSLSLSLGK
light 1: DIVMTQSPDSLAVSLGERATINCKSSQSLLNSRTRKNYLAWYQQKPGQPPKLLIYWASTRQSGVPDRFSGSGSGTDFTLTISSLQAEDVAVYYCTQSHTLRTFGGGTKVEIKPDIQNPDPAVYQLRDSKSSDKSVCLFTDFDSQTQVSQSKDSDVYITDKCVLDMRSMDFKSNSAVAWSQKSDFACANAFQNSIIPEDTFFPSPESS
heavy 2: QMQLVQSGPEVKKPGTSVKVSCKASGYAFTSYNMYWVRQARGQRLEWIGYIDPYNGDTTYNQKFKGRVTITRDMSTSTAYMELSSLRSEDTAVYYCLTTAYAMDYWGQGTLVTVSSASTKGPSVFPLAPCSRSTSESTAALGCLVKDYFPEPVTVSWNSGALTSGVHTFPAVLQSSGLYSLSSVVTVPSSSLGTKTYTCNVDHKPSNTKVDKRVESKYGPPCPPCPAPEFLGGPSVFLFPPKPKDTLMISRTPEVTCVVVDVSQEDPEVQFNWYVDGVEVHNAKTKPREEQFNSTYRVVSVLTVLHQDWLNGKEYKCKVSNKGLPSSIEKTISKAKGQPREPQVCTLPPSQEEMTKNQVSLSCAVKGFYPSDIAVEWESNGQPENNYKTTPPVLDSDGSFFLVSRLTVDKSRWQEGNVFSCSVMHEALHNHYTQKSLSLSLGK
light 2: DIQLTQSPSFLSASVGDRVTITCSASSTVNYMHWYQQKPGKAPKLLIYSTSNLASGVPSRFSGSGSGTEFTLTISSLQPEDFATYYCHQWSSYPYTFGQGTKLEIKRTVAAPSVFIFPPSDEQLKSGTASVVCLLNNFYPREAKVQWKVDNALQSGNSQESVTEQDSKDSTYSLSSTLTLSKADYEKHKVYACEVTHQGLSSPVTKSFNRGEC
notes: also called E17-Design_2-QQQQ (IgG4); E17-IgG4; copies: 1 + 1 + 1 + 1
Take B2: the Kd in assay [4] was found to be 23 nM; in assay [8], 9.79 nM. Also, the figures for the 50% effective concentration (EC50) in assay [5] and in assay [7] were 15.6 nM and 0.04 nM, respectively. Further, the binding result in assay [6] is given as “no binding (tested: about 1500 nM C1q)”.
